Results from paper doi:10.1101/2023.04.06.535761 (bioRxiv, 2023).
Numbering of substitutions follows the chain as printed. Names and notes keep the numbering of the source.

T1: RTCB (un-guanylylated, apo-RTCB) (human, UniProt Q9Y3I0 1-505)
T1 sequence (looked up): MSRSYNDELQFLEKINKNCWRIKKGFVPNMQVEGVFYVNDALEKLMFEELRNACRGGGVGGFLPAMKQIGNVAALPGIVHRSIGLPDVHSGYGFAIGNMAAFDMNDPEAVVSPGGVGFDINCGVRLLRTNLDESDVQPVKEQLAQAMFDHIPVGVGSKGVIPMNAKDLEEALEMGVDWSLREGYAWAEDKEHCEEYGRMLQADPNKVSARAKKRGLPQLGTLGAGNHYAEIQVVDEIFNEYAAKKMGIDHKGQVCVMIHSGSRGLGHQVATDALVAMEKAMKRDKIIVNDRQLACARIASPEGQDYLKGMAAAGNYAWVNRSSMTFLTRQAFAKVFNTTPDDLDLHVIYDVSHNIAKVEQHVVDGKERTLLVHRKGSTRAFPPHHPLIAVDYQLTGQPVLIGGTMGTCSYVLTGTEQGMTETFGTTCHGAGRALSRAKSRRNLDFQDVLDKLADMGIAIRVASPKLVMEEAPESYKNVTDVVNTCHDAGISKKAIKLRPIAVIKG

T2: StrepII-GFP-RTCB (human, UniProt Q9Y3I0 1-505)
T2 sequence (looked up): T1 sequence (looked up)

B1: PYROXD1 (wild type) (enzyme, human, UniProt Q8WU10 1-500, looked up)
chain: MEAARPPPTAGKFVVVGGGIAGVTCAEQLATHFPSEDILLVTASPVIKAVTNFKQISKILEEFDVEEQSSTMLGKRFPNIKVIESGVKQLKSEEHCIVTEDGNQHVYKKLCLCAGAKPKLICEGNPYVLGIRDTDSAQEFQKQLTKAKRIMIIGNGGIALELVYEIEGCEVIWAIKDKAIGNTFFDAGAAEFLTSKLIAEKSEAKIAHKRTRYTTEGRKKEARSKSKADNVGSALGPDWHEGLNLKGTKEFSHKIHLETMCEVKKIYLQDEFRILKKKSFTFPRDHKSVTADTEMWPVYVELTNEKIYGCDFIVSATGVTPNVEPFLHGNSFDLGEDGGLKVDDHMHTSLPDIYAAGDICTTSWQLSPVWQQMRLWTQARQMGWYAAKCMAAASSGDSIDMDFSFELFAHVTKFFNYKVVLLGKYNAQGLGSDHELMLRCTKGREYIKVVMQNGRMMGAVLIGETDLEETFENLILNQMNLSSYGEDLLDPNIDIEDYFD
B2: PYROXD1 D500A (enzyme, human, UniProt Q8WU10 1-500, looked up)
chain: B1 chain with D500A
B3: PYROXD1 Δ500 (domain or fragment, human, UniProt Q8WU10 1-499, looked up)
chain: MEAARPPPTAGKFVVVGGGIAGVTCAEQLATHFPSEDILLVTASPVIKAVTNFKQISKILEEFDVEEQSSTMLGKRFPNIKVIESGVKQLKSEEHCIVTEDGNQHVYKKLCLCAGAKPKLICEGNPYVLGIRDTDSAQEFQKQLTKAKRIMIIGNGGIALELVYEIEGCEVIWAIKDKAIGNTFFDAGAAEFLTSKLIAEKSEAKIAHKRTRYTTEGRKKEARSKSKADNVGSALGPDWHEGLNLKGTKEFSHKIHLETMCEVKKIYLQDEFRILKKKSFTFPRDHKSVTADTEMWPVYVELTNEKIYGCDFIVSATGVTPNVEPFLHGNSFDLGEDGGLKVDDHMHTSLPDIYAAGDICTTSWQLSPVWQQMRLWTQARQMGWYAAKCMAAASSGDSIDMDFSFELFAHVTKFFNYKVVLLGKYNAQGLGSDHELMLRCTKGREYIKVVMQNGRMMGAVLIGETDLEETFENLILNQMNLSSYGEDLLDPNIDIEDYF

Assays:
[1] = biological target: T1, RTCB (un-guanylylated, apo-RTCB); assay: cryo-EM structure
[2] = biological target: T2, StrepII-GFP-RTCB; assay: pull-down
[3] = biological target: T2, StrepII-GFP-RTCB; assay: pull-down; remark: listed apart in the source

Binder	stoichiometry N [1]	half-life of the complex upon NADH removal [2] [min]	binding result [3]
B1	1	~2	–
B2	–	–	binds
B3	–	–	binds
